The numbers were not newly measured in publication PMC4526808, which cites them from elsewhere.

Like-named read-outs stand apart in the source and are kept apart here.

Data set [1] deals with PKA RIIα D/D domain (UniProt P13861).
Data set [2] deals with PKA RIα D/D domain (UniProt P10644).
Data set [3] concerns the target PKA RIIα D/D domain (UniProt P13861). This is another data set of the same source.
Data set [4] shares this target. This is another data set of the same source.
The target of data set [5] is PKA RIα D/D domain (UniProt P10644). This is another data set of the same source.

Chain of UniProt P13861 (P13861 2-45): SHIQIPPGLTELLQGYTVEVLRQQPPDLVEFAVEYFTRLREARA
Chain of UniProt P10644 (P10644 1-61): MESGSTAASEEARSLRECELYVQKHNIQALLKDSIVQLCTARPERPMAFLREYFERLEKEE

On to AKAP-is, for which the Kd with PKA RIIα D/D domain [1] is 0.4 nM.

Regarding Ht31, the Kd with PKA RIα D/D domain [2] is 1300 nM; with PKA RIIα D/D domain [3] it was 2.2 nM. On to RIAD, for which the results for the Kd with PKA RIIα D/D domain [4] and with PKA RIα D/D domain [5] were 1800 nM and 1 nM, respectively.

By Kd is commonly meant the equilibrium constant for the complex coming apart.
